The supplement of paper PMC10126150
± gives the standard deviation of the averaged measurements.

Tested on: ATP
Assay: switch fluorescence ratio, 500 uM ATP over buffer (Cy3 cluster intensity, sum of 5 cycles each) (fold (ratio)); higher = stronger signal-on switching upon ATP binding; sequences stand for … in TCGTCGGCAGCGTCAGATGTGTATAAGAGACAGTTTTTTTTTTTTTTTTTTTTTTTTT…TC
Conditions: aptamer strand: ATP DNA aptamer (quencher-CACCTGGGGGAGTATTGCGGAGGAAGG + anchor), 100 nM annealed; ATP concentration: 500 uM
Method in brief: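 Clusters with intensities outside 100-1000 RFU were excluded. The remaining Cy3-labelled switching-strand clusters on a modified Illumina MiSeq flow-cell had been annealed to 100 nM quencher-labelled ATP aptamer and imaged in selection buffer, then after 15 min with 500 uM ATP at 22 °C, for five cycles separated by NaOH stripping and re-annealing. The fluorescence ratio, averaged per switch-domain sequence, is each cluster's summed target-cycle Cy3 intensity over its summed buffer-cycle Cy3 intensity.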
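Also: ATP exposure 15 min at 22 °C before imaging.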

Which switch fluorescence ratio does the source give for GGCTTAATAG here?
Its switch fluorescence ratio is 1.01 ± 0.033.

ATAATGTTGT was tested. Which switch fluorescence ratio did it give?
Its switch fluorescence ratio is 0.991 ± 0.031.

For ACGGACAGTT, which switch fluorescence ratio is on record?
The switch fluorescence ratio was 1.13 ± 0.029.

For GGGCGTTTCG, which switch fluorescence ratio is on record?
The switch fluorescence ratio was 1.005 ± 0.0089.

Which switch fluorescence ratio does the source give for ACGGGGCCGG here?
The switch fluorescence ratio was 1.06 ± 0.032.

Which switch fluorescence ratio does the source give for TAATGCGCAA here?
The switch fluorescence ratio was 2.56 ± 1.6.

How did the switch fluorescence ratio turn out when TGAGCTGGGT was run?
The switch fluorescence ratio was 0.995 ± 0.02.

How did the switch fluorescence ratio turn out when GGACTCTGCG was run?
Its switch fluorescence ratio is 1 ± 0.028.

How did the switch fluorescence ratio turn out when GTTGGGCCCA was run?
Its switch fluorescence ratio is 1 ± 0.016.

How did the switch fluorescence ratio turn out when TCGATAATTT was run?
Its switch fluorescence ratio is 0.986 ± 0.022.

Which switch fluorescence ratio does the source give for ATACGAGCAG here?
The switch fluorescence ratio was 1.067 ± 0.006.

How did the switch fluorescence ratio turn out when TTTTAGTCGG was run?
The switch fluorescence ratio was 0.9883 ± 0.0092.

With GGAGTTGCGC as the sequence, how does the switch fluorescence ratio read?
The switch fluorescence ratio was 1.03 ± 0.043.

Which switch fluorescence ratio does the source give for AACAGGGCAC here?
Its switch fluorescence ratio is 1.018 ± 0.0051.

With CTCAGGCG as the sequence, how does the switch fluorescence ratio read?
The switch fluorescence ratio was 1.17 ± 0.23.

With ATTGAAGGAG as the sequence, how does the switch fluorescence ratio read?
Its switch fluorescence ratio is 0.994 ± 0.023.

With TTATACTGAA as the sequence, how does the switch fluorescence ratio read?
Its switch fluorescence ratio is 1.05 ± 0.021.

TCGGCGGGCG was tested. Which switch fluorescence ratio did it give?
The switch fluorescence ratio was 0.986 ± 0.043.

With GTTATAGCTA as the sequence, how does the switch fluorescence ratio read?
Its switch fluorescence ratio is 0.9859 ± 0.0061.

With ATGATCCCGC as the sequence, how does the switch fluorescence ratio read?
The switch fluorescence ratio was 1.2 ± 0.019.

With AACTCAGATT as the sequence, how does the switch fluorescence ratio read?
Its switch fluorescence ratio is 1.01 ± 0.026.

TTTGCCTTGG was tested. Which switch fluorescence ratio did it give?
Its switch fluorescence ratio is 1.02 ± 0.018.

How did the switch fluorescence ratio turn out when ACTTAGAAAT was run?
The switch fluorescence ratio was 1.046 ± 0.01.

How did the switch fluorescence ratio turn out when AGCACGCTGG was run?
The switch fluorescence ratio was 1.029 ± 0.0042.

Which switch fluorescence ratio does the source give for CGTGACGGTT here?
The switch fluorescence ratio was 1.03 ± 0.062.

AACAGTAGGG was tested. Which switch fluorescence ratio did it give?
The switch fluorescence ratio was 1.03 ± 0.012.

AGAGATTGCC was tested. Which switch fluorescence ratio did it give?
Its switch fluorescence ratio is 1.0678 ± 0.0008.

How did the switch fluorescence ratio turn out when TTTGGATCTG was run?
The switch fluorescence ratio was 1.034 ± 0.0094.

For AAAGTATTTC, which switch fluorescence ratio is on record?
The switch fluorescence ratio was 1.02 ± 0.015.

How did the switch fluorescence ratio turn out when GCAGCGGGGA was run?
Its switch fluorescence ratio is 1.04 ± 0.017.

Which switch fluorescence ratio does the source give for CAAGTTGACC here?
The switch fluorescence ratio was 1.01 ± 0.046.

How did the switch fluorescence ratio turn out when ACTAGAGGTT was run?
Its switch fluorescence ratio is 1.06 ± 0.039.

For TTATTGGGGA, which switch fluorescence ratio is on record?
Its switch fluorescence ratio is 0.974 ± 0.024.

AGCGCATGTG was tested. Which switch fluorescence ratio did it give?
The switch fluorescence ratio was 0.996 ± 0.013.

With TGGAAGGGTG as the sequence, how does the switch fluorescence ratio read?
The switch fluorescence ratio was 1.05 ± 0.017.

For AATTGGGCTA, which switch fluorescence ratio is on record?
Its switch fluorescence ratio is 0.9994 ± 0.0056.

For CAGTGAGATG, which switch fluorescence ratio is on record?
Its switch fluorescence ratio is 1.03 ± 0.019.

How did the switch fluorescence ratio turn out when TTATCCTGGT was run?
Its switch fluorescence ratio is 0.975 ± 0.011.

With GGGAAGAATA as the sequence, how does the switch fluorescence ratio read?
The switch fluorescence ratio was 0.986 ± 0.018.

Which switch fluorescence ratio does the source give for GTTATATGGT here?
The switch fluorescence ratio was 1.02 ± 0.021.

With CAGCGAGGGG as the sequence, how does the switch fluorescence ratio read?
Its switch fluorescence ratio is 1.21 ± 0.32.

With TATGGGCGTT as the sequence, how does the switch fluorescence ratio read?
Its switch fluorescence ratio is 1 ± 0.011.

Which switch fluorescence ratio does the source give for TGGGATAAAG here?
The switch fluorescence ratio was 0.9923 ± 0.0029.

With CTCTCTAGCA as the sequence, how does the switch fluorescence ratio read?
The switch fluorescence ratio was 1.4 ± 0.015.

How did the switch fluorescence ratio turn out when TCTTATTTGG was run?
The switch fluorescence ratio was 1.01 ± 0.05.

GTATTGGGGC was tested. Which switch fluorescence ratio did it give?
The switch fluorescence ratio was 0.9807 ± 0.0029.

For TTGTAGGAGC, which switch fluorescence ratio is on record?
The switch fluorescence ratio was 0.965 ± 0.14.

Which switch fluorescence ratio does the source give for ATTTCTTGGG here?
The switch fluorescence ratio was 0.99703 ± 0.00034.

Which switch fluorescence ratio does the source give for AGTTGTGAGT here?
The switch fluorescence ratio was 0.9726 ± 0.0077.

How did the switch fluorescence ratio turn out when ATTTTGATAT was run?
Its switch fluorescence ratio is 1.01 ± 0.018.

AAGTTATTTT was tested. Which switch fluorescence ratio did it give?
The switch fluorescence ratio was 1.01 ± 0.015.

With GTGGGCAGGT as the sequence, how does the switch fluorescence ratio read?
The switch fluorescence ratio was 0.988 ± 0.024.

Which switch fluorescence ratio does the source give for TAGGGCTGCA here?
Its switch fluorescence ratio is 1.06 ± 0.079.

For GTAGTAGGGG, which switch fluorescence ratio is on record?
The switch fluorescence ratio was 0.999 ± 0.015.

GCGCGTCAAG was tested. Which switch fluorescence ratio did it give?
The switch fluorescence ratio was 1.012 ± 0.009.

How did the switch fluorescence ratio turn out when CGTATGCCGA was run?
Its switch fluorescence ratio is 0.961 ± 0.016.

How did the switch fluorescence ratio turn out when AACTCAGGGG was run?
Its switch fluorescence ratio is 1.29 ± 0.067.

For CTCGTTCGGC, which switch fluorescence ratio is on record?
The switch fluorescence ratio was 0.98 ± 0.024.

How did the switch fluorescence ratio turn out when GTTTAAAACG was run?
Its switch fluorescence ratio is 0.9961 ± 0.0073.

Which switch fluorescence ratio does the source give for TCTATGACAA here?
Its switch fluorescence ratio is 1.01 ± 0.039.

Which switch fluorescence ratio does the source give for TTTGCTGTAT here?
Its switch fluorescence ratio is 0.9747 ± 0.0032.

How did the switch fluorescence ratio turn out when TAGCGGGAGG was run?
The switch fluorescence ratio was 1.02 ± 0.024.

How did the switch fluorescence ratio turn out when TGTACGGGGA was run?
Its switch fluorescence ratio is 0.995 ± 0.03.

With GGTGGGTGTA as the sequence, how does the switch fluorescence ratio read?
The switch fluorescence ratio was 0.957 ± 0.051.

Which switch fluorescence ratio does the source give for TCATGGTATT here?
Its switch fluorescence ratio is 1.01 ± 0.011.

How did the switch fluorescence ratio turn out when ATCGGATTGT was run?
Its switch fluorescence ratio is 1.012 ± 0.007.

Which switch fluorescence ratio does the source give for GGCACGCGAG here?
The switch fluorescence ratio was 1.03 ± 0.05.

With GCGATTATAT as the sequence, how does the switch fluorescence ratio read?
The switch fluorescence ratio was 0.969 ± 0.049.

For CGTGCGTCGG, which switch fluorescence ratio is on record?
The switch fluorescence ratio was 1.01 ± 0.017.

Which switch fluorescence ratio does the source give for CATTCTGCGC here?
Its switch fluorescence ratio is 1.16 ± 0.05.

TCGTGGGGTA was tested. Which switch fluorescence ratio did it give?
The switch fluorescence ratio was 0.9761 ± 0.007.

Which switch fluorescence ratio does the source give for TATGGAGGAG here?
Its switch fluorescence ratio is 0.981 ± 0.017.

GGAGTAAAGG was tested. Which switch fluorescence ratio did it give?
Its switch fluorescence ratio is 1.06 ± 0.022.

Which switch fluorescence ratio does the source give for CGAACTTTTG here?
The switch fluorescence ratio was 0.984 ± 0.018.

ACACTTGAAT was tested. Which switch fluorescence ratio did it give?
Its switch fluorescence ratio is 0.996 ± 0.027.

How did the switch fluorescence ratio turn out when TTGGGATTTT was run?
Its switch fluorescence ratio is 1.01 ± 0.033.

With TTTTTATTAA as the sequence, how does the switch fluorescence ratio read?
The switch fluorescence ratio was 0.989 ± 0.033.

TTGTTTTAC was tested. Which switch fluorescence ratio did it give?
Its switch fluorescence ratio is 1.05 ± 0.067.

With AATTCACGTT as the sequence, how does the switch fluorescence ratio read?
The switch fluorescence ratio was 1.17 ± 0.19.

With CGGAGTGGTA as the sequence, how does the switch fluorescence ratio read?
The switch fluorescence ratio was 1.09 ± 0.014.

For CGGGTAATGT, which switch fluorescence ratio is on record?
The switch fluorescence ratio was 0.978 ± 0.029.

AACCACTCAT was tested. Which switch fluorescence ratio did it give?
Its switch fluorescence ratio is 1.02 ± 0.053.

For GAGTTTGGTG, which switch fluorescence ratio is on record?
Its switch fluorescence ratio is 0.94 ± 0.033.

Which switch fluorescence ratio does the source give for GTAATATTTC here?
The switch fluorescence ratio was 0.992 ± 0.027.

CTGGGTTGGC was tested. Which switch fluorescence ratio did it give?
Its switch fluorescence ratio is 1.0029 ± 0.00048.

Which switch fluorescence ratio does the source give for TTCAATGGTT here?
The switch fluorescence ratio was 1.02 ± 0.035.

With CTGACTTTTT as the sequence, how does the switch fluorescence ratio read?
The switch fluorescence ratio was 1.02 ± 0.016.

With GATAGTTGGG as the sequence, how does the switch fluorescence ratio read?
The switch fluorescence ratio was 0.988 ± 0.02.

How did the switch fluorescence ratio turn out when CCTGAAGTTG was run?
Its switch fluorescence ratio is 1.18 ± 0.21.

With AGCGGGGGAT as the sequence, how does the switch fluorescence ratio read?
Its switch fluorescence ratio is 1.01 ± 0.027.

For TTGGATTTAT, which switch fluorescence ratio is on record?
The switch fluorescence ratio was 1.011 ± 0.0093.

For GTTCCTGGGG, which switch fluorescence ratio is on record?
The switch fluorescence ratio was 1.03 ± 0.019.

TCCCGGCCTG was tested. Which switch fluorescence ratio did it give?
Its switch fluorescence ratio is 1.012 ± 0.0041.

Which switch fluorescence ratio does the source give for GATAACGTTT here?
The switch fluorescence ratio was 0.99 ± 0.017.

For TGGACCTTTT, which switch fluorescence ratio is on record?
The switch fluorescence ratio was 1.64 ± 0.82.

With TGGAGTGGGG as the sequence, how does the switch fluorescence ratio read?
The switch fluorescence ratio was 1 ± 0.025.

With CTGGATGGAG as the sequence, how does the switch fluorescence ratio read?
Its switch fluorescence ratio is 0.9934 ± 0.0047.

How did the switch fluorescence ratio turn out when AGGTTAGACG was run?
The switch fluorescence ratio was 1.01 ± 0.04.

With GACCGTAATG as the sequence, how does the switch fluorescence ratio read?
Its switch fluorescence ratio is 1.05 ± 0.03.

TGTTTAAAGG was tested. Which switch fluorescence ratio did it give?
The switch fluorescence ratio was 1.02 ± 0.051.
